# Experimental data published in patent US20120172293A1 (Takeda / Millennium, published 2012).
# Non-standard residues stand in square brackets, D forms with d. No end group written: not given here. tBuAla = CC(C)(C)C[C@H](N)C(=O)O; Cha = N[C@@H](CC1CCCCC1)C(=O)O; hLeu = CC(C)CC[C@H](N)C(=O)O; 4Amb = NCc1ccc(C(=O)O)cc1; Aib = CC(C)(N)C(=O)O
# Tests used:
# [1] = target: T1, human Y2 receptor (human, UniProt P49146 1-381); experiment: cell-based or functional assay
# T1 sequence (looked up): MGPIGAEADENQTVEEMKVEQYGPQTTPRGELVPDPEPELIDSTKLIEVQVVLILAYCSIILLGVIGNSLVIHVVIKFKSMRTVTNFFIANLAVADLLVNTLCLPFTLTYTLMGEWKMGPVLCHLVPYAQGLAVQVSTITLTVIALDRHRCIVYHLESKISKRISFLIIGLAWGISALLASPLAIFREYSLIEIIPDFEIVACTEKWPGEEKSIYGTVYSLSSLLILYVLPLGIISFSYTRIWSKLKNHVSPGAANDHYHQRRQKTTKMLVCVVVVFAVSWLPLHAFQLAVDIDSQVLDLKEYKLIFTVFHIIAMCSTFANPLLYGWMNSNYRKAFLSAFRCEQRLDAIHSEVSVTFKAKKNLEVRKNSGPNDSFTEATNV
# [2] = target: T1, human Y2 receptor; experiment: RBA: [125I]-PYY displacement, hY2R/CHO membranes
# In short: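 Bound radioligand was collected by filtration on PEI-treated GF/C filters, washed with Tris/MgCl₂/NaCl/CHAPS buffer pH 7.4, and counted by scintillation; IC₅₀ values were calculated.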
Binder,"GBA EC50 Ratio (vs PYY(3-36)), [35S]GTPγS [1] [ratio]",IC50 Ratio (vs PYY(3-36)) [2] [ratio]
"[4Amb]RAYINFITRQRY-NH2 (N-terminus assumed; SMILES CC[C@H](C)[C@H](NC(=O)[C@H](Cc1ccc(O)cc1)NC(=O)[C@H](C)NC(=O)[C@H](CCCNC(=N)N)NC(=O)c1ccc(CN)cc1)C(=O)N[C@@H](CC(N)=O)C(=O)N[C@@H](Cc1ccccc1)C(=O)N[C@H](C(=O)N[C@H](C(=O)N[C@@H](CCCNC(=N)N)C(=O)N[C@@H](CCC(N)=O)C(=O)N[C@@H](CCCNC(=N)N)C(=O)N[C@@H](Cc1ccc(O)cc1)C(N)=O)[C@@H](C)O)[C@@H](C)CC, also called compound No. 54) [4-Aminomethylbenzoyl-[Ala26, Ile28,31, Phe30]-PYY(25-36)]",3.4,5.7
"[4Amb]RAYINLFTRQRY-NH2 (N-terminus assumed; SMILES CC[C@H](C)[C@H](NC(=O)[C@H](Cc1ccc(O)cc1)NC(=O)[C@H](C)NC(=O)[C@H](CCCNC(=N)N)NC(=O)c1ccc(CN)cc1)C(=O)N[C@@H](CC(N)=O)C(=O)N[C@@H](CC(C)C)C(=O)N[C@@H](Cc1ccccc1)C(=O)N[C@H](C(=O)N[C@@H](CCCNC(=N)N)C(=O)N[C@@H](CCC(N)=O)C(=O)N[C@@H](CCCNC(=N)N)C(=O)N[C@@H](Cc1ccc(O)cc1)C(N)=O)[C@@H](C)O, also called compound No. 59) [4-Aminomethylbenzoyl-[Ala26, Ile28, Phe31]-PYY(25-36)]",6.6,16
"[4Amb]RAYINLISRQRY-NH2 (N-terminus assumed; SMILES CC[C@H](C)[C@H](NC(=O)[C@H](Cc1ccc(O)cc1)NC(=O)[C@H](C)NC(=O)[C@H](CCCNC(=N)N)NC(=O)c1ccc(CN)cc1)C(=O)N[C@@H](CC(N)=O)C(=O)N[C@@H](CC(C)C)C(=O)N[C@H](C(=O)N[C@@H](CO)C(=O)N[C@@H](CCCNC(=N)N)C(=O)N[C@@H](CCC(N)=O)C(=O)N[C@@H](CCCNC(=N)N)C(=O)N[C@@H](Cc1ccc(O)cc1)C(N)=O)[C@@H](C)CC, also called compound No. 60) [4-Aminomethylbenzoyl-[Ala26, Ile28,31, Ser32]-PYY(25-36)]",44,180
"[4Amb]RAYFNLITRQRY-NH2 (N-terminus assumed; SMILES CC[C@H](C)[C@H](NC(=O)[C@H](CC(C)C)NC(=O)[C@H](CC(N)=O)NC(=O)[C@H](Cc1ccccc1)NC(=O)[C@H](Cc1ccc(O)cc1)NC(=O)[C@H](C)NC(=O)[C@H](CCCNC(=N)N)NC(=O)c1ccc(CN)cc1)C(=O)N[C@H](C(=O)N[C@@H](CCCNC(=N)N)C(=O)N[C@@H](CCC(N)=O)C(=O)N[C@@H](CCCNC(=N)N)C(=O)N[C@@H](Cc1ccc(O)cc1)C(N)=O)[C@@H](C)O, also called compound No. 22) [4-Aminomethylbenzoyl-[Ala26, Phe28, Ile31]-PYY(25-36)]",3.5,4.1
"[4Amb]RGYINLITRQRY-NH2 (N-terminus assumed; SMILES CC[C@H](C)[C@H](NC(=O)[C@H](Cc1ccc(O)cc1)NC(=O)CNC(=O)[C@H](CCCNC(=N)N)NC(=O)c1ccc(CN)cc1)C(=O)N[C@@H](CC(N)=O)C(=O)N[C@@H](CC(C)C)C(=O)N[C@H](C(=O)N[C@H](C(=O)N[C@@H](CCCNC(=N)N)C(=O)N[C@@H](CCC(N)=O)C(=O)N[C@@H](CCCNC(=N)N)C(=O)N[C@@H](Cc1ccc(O)cc1)C(N)=O)[C@@H](C)O)[C@@H](C)CC, also called compound No. 50) [4-Aminomethylbenzoyl-[Gly26, Ile28,31]-PYY(25-36)]",4.6,7.1
"[4Amb]RRYINLITRQRY-NH2 (N-terminus assumed; SMILES CC[C@H](C)[C@H](NC(=O)[C@H](Cc1ccc(O)cc1)NC(=O)[C@H](CCCNC(=N)N)NC(=O)[C@H](CCCNC(=N)N)NC(=O)c1ccc(CN)cc1)C(=O)N[C@@H](CC(N)=O)C(=O)N[C@@H](CC(C)C)C(=O)N[C@H](C(=O)N[C@H](C(=O)N[C@@H](CCCNC(=N)N)C(=O)N[C@@H](CCC(N)=O)C(=O)N[C@@H](CCCNC(=N)N)C(=O)N[C@@H](Cc1ccc(O)cc1)C(N)=O)[C@@H](C)O)[C@@H](C)CC, also called compound No. 18) [4-Aminomethylbenzoyl-[Arg26, Ile28,31]-PYY(25-36)]",3,4
"[4Amb]RAYWNLITRQRY-NH2 (N-terminus assumed; SMILES CC[C@H](C)[C@H](NC(=O)[C@H](CC(C)C)NC(=O)[C@H](CC(N)=O)NC(=O)[C@H](Cc1c[nH]c2ccccc12)NC(=O)[C@H](Cc1ccc(O)cc1)NC(=O)[C@H](C)NC(=O)[C@H](CCCNC(=N)N)NC(=O)c1ccc(CN)cc1)C(=O)N[C@H](C(=O)N[C@@H](CCCNC(=N)N)C(=O)N[C@@H](CCC(N)=O)C(=O)N[C@@H](CCCNC(=N)N)C(=O)N[C@@H](Cc1ccc(O)cc1)C(N)=O)[C@@H](C)O, also called compound No. 23) [4-Aminomethylbenzoyl-[Ala26, Trp28, Ile31]-PYY(25-36)]",5,3.4
"[4Amb]RAYINYITRQRY-NH2 (N-terminus assumed; SMILES CC[C@H](C)[C@H](NC(=O)[C@H](Cc1ccc(O)cc1)NC(=O)[C@H](C)NC(=O)[C@H](CCCNC(=N)N)NC(=O)c1ccc(CN)cc1)C(=O)N[C@@H](CC(N)=O)C(=O)N[C@@H](Cc1ccc(O)cc1)C(=O)N[C@H](C(=O)N[C@H](C(=O)N[C@@H](CCCNC(=N)N)C(=O)N[C@@H](CCC(N)=O)C(=O)N[C@@H](CCCNC(=N)N)C(=O)N[C@@H](Cc1ccc(O)cc1)C(N)=O)[C@@H](C)O)[C@@H](C)CC, also called compound No. 57) [4-Aminomethylbenzoyl-[Ala26, Ile28,31, Tyr30]-PYY(25-36)]",1.9,2.8
"[4Amb]RAYINLITRQRF-NH2 (N-terminus assumed; SMILES CC[C@H](C)[C@H](NC(=O)[C@H](Cc1ccc(O)cc1)NC(=O)[C@H](C)NC(=O)[C@H](CCCNC(=N)N)NC(=O)c1ccc(CN)cc1)C(=O)N[C@@H](CC(N)=O)C(=O)N[C@@H](CC(C)C)C(=O)N[C@H](C(=O)N[C@H](C(=O)N[C@@H](CCCNC(=N)N)C(=O)N[C@@H](CCC(N)=O)C(=O)N[C@@H](CCCNC(=N)N)C(=O)N[C@@H](Cc1ccccc1)C(N)=O)[C@@H](C)O)[C@@H](C)CC, also called compound No. 6) [4-Aminomethylbenzoyl-[Ala26, Ile28,31, Phe36]-PYY(25-36)]",5.9,5.1
"[4Amb]RAYLNLITRQRY-NH2 (N-terminus assumed; SMILES CC[C@H](C)[C@H](NC(=O)[C@H](CC(C)C)NC(=O)[C@H](CC(N)=O)NC(=O)[C@H](CC(C)C)NC(=O)[C@H](Cc1ccc(O)cc1)NC(=O)[C@H](C)NC(=O)[C@H](CCCNC(=N)N)NC(=O)c1ccc(CN)cc1)C(=O)N[C@H](C(=O)N[C@@H](CCCNC(=N)N)C(=O)N[C@@H](CCC(N)=O)C(=O)N[C@@H](CCCNC(=N)N)C(=O)N[C@@H](Cc1ccc(O)cc1)C(N)=O)[C@@H](C)O, also called compound No. 20) [4-Aminomethylbenzoyl-[Ala26, Ile31]-PYY(25-36)]",2,2.8
"[4Amb]RAWINLITRQRY-NH2 (N-terminus assumed; SMILES CC[C@H](C)[C@H](NC(=O)[C@H](Cc1c[nH]c2ccccc12)NC(=O)[C@H](C)NC(=O)[C@H](CCCNC(=N)N)NC(=O)c1ccc(CN)cc1)C(=O)N[C@@H](CC(N)=O)C(=O)N[C@@H](CC(C)C)C(=O)N[C@H](C(=O)N[C@H](C(=O)N[C@@H](CCCNC(=N)N)C(=O)N[C@@H](CCC(N)=O)C(=O)N[C@@H](CCCNC(=N)N)C(=O)N[C@@H](Cc1ccc(O)cc1)C(N)=O)[C@@H](C)O)[C@@H](C)CC, also called compound No. 51) [4-Aminomethylbenzoyl-[Ala26, Trp27, Ile28,31]-PYY(25-36)]",5.3,9.5
"[4Amb]RPYINLITRQRY-NH2 (N-terminus assumed; SMILES CC[C@H](C)[C@H](NC(=O)[C@H](Cc1ccc(O)cc1)NC(=O)[C@@H]1CCCN1C(=O)[C@H](CCCNC(=N)N)NC(=O)c1ccc(CN)cc1)C(=O)N[C@@H](CC(N)=O)C(=O)N[C@@H](CC(C)C)C(=O)N[C@H](C(=O)N[C@H](C(=O)N[C@@H](CCCNC(=N)N)C(=O)N[C@@H](CCC(N)=O)C(=O)N[C@@H](CCCNC(=N)N)C(=O)N[C@@H](Cc1ccc(O)cc1)C(N)=O)[C@@H](C)O)[C@@H](C)CC, also called compound No. 19) [4-Aminomethylbenzoyl-[Pro26, Ile28,31]-PYY(25-36)]",25,45
"Ac-S[dP]RH[Cha][Cha]NL[Aib]TRQR[hLeu]-NH2 (SMILES CC(=O)N[C@@H](CO)C(=O)N1CCC[C@@H]1C(=O)N[C@@H](CCCNC(=N)N)C(=O)N[C@@H](Cc1c[nH]cn1)C(=O)N[C@@H](CC1CCCCC1)C(=O)N[C@@H](CC1CCCCC1)C(=O)N[C@@H](CC(N)=O)C(=O)N[C@@H](CC(C)C)C(=O)NC(C)(C)C(=O)N[C@H](C(=O)N[C@@H](CCCNC(=N)N)C(=O)N[C@@H](CCC(N)=O)C(=O)N[C@@H](CCCNC(=N)N)C(=O)N[C@@H](CCC(C)C)C(N)=O)[C@@H](C)O, also called compound No. 199) [Ac-[D-Pro24, Cha27,28, Aib31, homoLeu36]-PYY(23-36)]",8.5,20
"Ac-S[dP]RH[Cha][Cha]NL[Aib]TRQR[tBuAla]-NH2 (SMILES CC(=O)N[C@@H](CO)C(=O)N1CCC[C@@H]1C(=O)N[C@@H](CCCNC(=N)N)C(=O)N[C@@H](Cc1c[nH]cn1)C(=O)N[C@@H](CC1CCCCC1)C(=O)N[C@@H](CC1CCCCC1)C(=O)N[C@@H](CC(N)=O)C(=O)N[C@@H](CC(C)C)C(=O)NC(C)(C)C(=O)N[C@H](C(=O)N[C@@H](CCCNC(=N)N)C(=O)N[C@@H](CCC(N)=O)C(=O)N[C@@H](CCCNC(=N)N)C(=O)N[C@@H](CC(C)(C)C)C(N)=O)[C@@H](C)O, also called compound No. 198) [Ac-[D-Pro24, Cha27,28, Aib31, Leu(Me)36]-PYY(23-36)]",7.1,12
